According to a protein production outcome set (Wang et al. 2014):

Test: label from the status in PepcDB records

| Sequence | protein production |
| --- | --- |
| MKIGVYGASGRIGKLLLEELKGGYKGLALSSVFVRQKCETDFSSFSHAPLVTNDLKAFVRACECVIDFSLPKGVDNLLEALLECPKILVSGTTGLEKETLEKMQQLALKAPLLHAHNMSIGIMMLNQLAFLTSLKLKDADIEIIETHHNLKKDIPSGTALSLYETCAKARGYDEKNALITHREGLRSKESIGIAALRGGDVAGKHTIGFYLEGEYIELSHTATNRSIFAKGALEVALWLKDKAAKKYEINEMFG | failed |
| MKIIDKLYEKVSKNGFVCIGLDSSIDYIPENMKAGKSVSEALFSYNKEIIDQTYDVCAIYKLQIAYYESYGIEGMIAYRDTLSYLREKDLLSIGDVKRSDIAASAKMYAKAHFEGDFETDFITLNPYMGMDSIEPYEEYIEKGDKGVFVLLRTSNPGAKDFEVLPVDGEEFFYKVGDKMRELNEKYIGKSGFGPIGLVVGATHSEEVEKIRKRYDKMFFLIPGFGAQKADSMNVYKLLEGLNGGVVNSSRAILKNWQNYEDGSEKVGYYARKKAIETYEEIKANEVL | not failed |
| MKIIKRAIISLIILSLLISITMSNASASEELYYSVEYKNTATFNKLVKKKSLNVVYNIPELHVAQIKMTKMHANALANYKNDIKYINATCSTCITSEKTIDRTSNESLFSRQWDMNKITNNGASYDDLPKHANTKIAIIDTGVMKNHDDLKNNFSTDSKNLVPLNGFRGTEPEETGDVHDVNDRKGHGTMVSGQTSANGKLIGVAPNNKFTMYRVFGSKKTELLWVSKAIVQAANDGNQVINISVGSYIILDKNDHQTFRKDEKVEYDALQKAINYAKKKKSIVVAAAGNDGIDVNDKQKLKLQREYQGNGEVKDVPASMDNVVTVGSTDQKSNLSEFSNFGMNYTDIAAPGGSFAYLNQFGVDKWMNEGYMHKENILTTANNGRYIYQAGTSLATPKVSGALALIIDKYHLEKHPDKAIELLYQHGTSKNNKPFSRYGHGELDVYKALNVANQKAS | not failed |
| MKIITCYKSVPDEQDIVVNNADGSLDFSRANNKISQYDLNAIEAANQLKTQLDGIQITAMSVGGNALTNAKARKDVLSRGADDLVVVVDEQLEASLPYQTATVLAAAATKQGYDLILCGDGSADLSSQQVSLLVGEILNIPAINGVNKIVSITTDSITVERELENEIETLTITLPAVIAVSTDINSPQIPSMKAILGAAKKPVQQWSVADLGLEPITPRSEQTVLAPKQKVRQRIIIEGDGDDQIAEFAEYLRKIIK | failed |
| MKIIVVGGGKVGKALCRSLVEEEHDVILIEENESVLNHVTKRLDIMGIVGNGANFRILEQADVQHCDIFIAITDKDEVNMVAAVLAKRMGAKETIVRVRNPEYSNTYFKDKNFLGFSLVVNPELLTARYIANMVDFPNARSVEHFVNGRVMLMEFKIVDGNNLCQMSLNQFRKRFNNIVICAIERGNELIIPDGDAVIQSGDKIFVTGKRMEMIHFHNFVKNKVIKHLMIIGAGRISYYLLNILKTTNRHLQVKVIELNPKKAELFSQEFPHIHVVQGDGTAKDILLEESAANYDAIATLTGVDEENIIASMFLETLGVQKNITKVNRTSILEIINPEQFSSIITPKSIAVDSMMHFIRGRVNAQDSNLDAMHHVANGRIETLQFEIRQTNKMAGKTLSELHFKTNVLIAAIIRNGKTIFPTGDDILEVGDKIVVITLLTNITHIYDLLKR | failed |
| MKIKFKRLDYQEQCRDQILGVFKGIDLKEPENDAQRISNPVFEIGAIKDLLLENIENLRSKQKITQGSVGIDKSLNCDILMETGTGKTFCFLECVYALHKNHHLSKFIVLTPSNAIKLGVLKSVEITREFFKSEYSNTHLESYEDIERFILASNHKCCVLVMTFSAFNKEKNTINKSCLENTNLFNGATSYMQALVSMRPIVIMDEPHRFLGDKTKKYLEQLNALLTLRFGATFKDDYNNLIYTLDSKKAFDCALVKSISVASVGESNECFLELKGIEKKEAAINYTDLENKTQSVKVKEHDNLGVVTQISALEDYIVEKITKTEIRFLNGFNLLLDQKEPFSHLLEGEQEVMLKEAIKSHFEREEGLFKKGIKALCMVFISGVNSYLSENEKPAKLALLFEKLYQQKLEEVLKKPLDENYRAYLECTREDIKKVHGGYFAKSKKEGDETKTIELILKEKEKLLSFDSDLRFIFSQWALQEGWDNPNVMTICKLAPSHSNITKLQQIGRGLRLAVNDKGERITKEHADFDFVNELVVIVPQVEGDFVGAIQQEISEHSLIKQEFSAEELEKSGVVKKGRYGFLLETLEGLGFGEKTGDENFKLTLNQNEFLEKEPELEKLKDEKYLDFEKLKDFLKDRLIGNSRVRDKNERKSEKIKINKENFKKFETLWESLNHQARIAYAIDSESLIDEIVKNINSSFNVSSKIVSVTTHKKVETMGNNAKTEIFERENACVWSLHEFISALSNKVKLSFKSVAKVLENIDENKFNEIKKNEQEGLRRLEELFLEIIYQNIKDKISYQMRETTIKNRKNDAFYDEKGEIREFLDGSLGADKYEIKNSSVREKCLYENFMQVDSEIEKDTIEESNDTKIIVFGKLPRVKIPIGLNQTYSPDFGYVVENNDKKVLLVVETKGVDKKSELRPEEERKISTAKKFFEALKKQGVNIEYKTKMEKDQLSALINEVLNRKD | failed |
| MKIKKNMIKGILLTTIVSFLAKIAADYLPSLGGEAIAMLLGILIGNTVFKDEKWMPGIKWAEKFPIEIGIALMGLTVTLRTISSLKIQGVIFILFQMMATILFVLWVGRRFIKVPSESAMLMASGNAVCGSSAIAAVAPAIRASDDQRRTAVATVSLSGVVLLFLLPVIGPNIFHGNNLLIGALIGGTVQSVGQVVGTASLVNQAVVTYATLFKMLRVILLSVVVFVFARFADRTRADEIKTDSKKVAVPWFVIVFIIFVFINSFFNLSNTVNTGAKSIANFFGIVNLAGIGLNLKWQTVKNSGQKFMIYGLVTVCFQILFAVLMINVLFG | failed |
| MKIKRLYLLGAWLLLGVSVSAQITSIQPQPQQVLSQARNLSLPDTYLIVGDTEANTHAVSALKTLLAGKHSDKNGFRIYIGEKGDKAIRKFARQIPNHKEGYYLAINDKEIVLAGQDGRGTFYALQTLAQLLNDNQLPVVEIKDYPSVRFRGVVEGFYGTPWSHEARLRQLKFYGENKMNTYIYGPKDDPYHSSPNWRLPYPEKEALQLQELVKVANENEVDFVWAIHPGQDIKWNQEDRDLLLAKFEKMYDLGVRSFAVFFDDISGEGTNPNKQAELLNYIDEKFVKVKPDVTPLVMCPTEYNKSWSNPKGNYLTTLGEKLNPSIQIMWTGDRVISDITKDGIAWINARIKRPAYIWWNFPVSDYVRDHLLLGPVYGNDTQIADQMSGFVTNPMEHAEASKIAIYSVAGYAWNPEKYNSEQTWKDAIRTILPSAADELEFFAAHNSDLGPNGHKYRRDESVELQPLSQRFLDSYLKNGSYTEADFNALEATFGKMVESGDVLMTNTGNRPLIVEMMPWLRQFKLLGETGQEVLAMAKAYKEGDNSLFIRKYRHVKALQQQMFQVDQTYNQNPYQPGVKTATKVIKPLIDQTFTTVTERYNKEHGTQLDAATDYMPHKLVSDVEQLRNQPLQIKTNRVLVSPANEVIKWGAGCTLTIELDQAYPGENLDIDFGKPDVAAWGQLEISADGKEWQKVDFKQEKNRITLNLKQTPVKAVRFSNVGNAEQEVYLRRFMITLDK | failed |
| MKIKVALLDKDKEYLDRLTGVFNTKYADKLEVYSFTDEKNAIESVKEYRIDVLIAEEDFNIDKSEFKRNCGLAYFTGTPGIELIKDEIAICKYQRVDVIFKQILGVYSDMAANVATISGENDKSSVVIFTSPCGGVGTSTVAAACAIAHANMGKKVFYLNIEQCGTTDVFFQAEGNATMSDVIYSLKSRKANLLLKLESCIKQSQEGVSYFSSTKVALDILEISYADIDTLIGNIQGMDNYDEIIVDLPFSLEIEKLKLLSKAWRIIVVNDGSQLSNYKFMRAYESVVLLEQNDDINIIRNMNMIYNKFSNKNSEMLSNISIKTIGGAPRYEHATVRQIIEALTKMEFFEEILQ | not failed |
| MKILKISLTVVVEVALIYLFSLLVGWSFMEAFFLGSLAIFGAIWLIALNINQNNNIDHTIYKTGTVKPFQMTWGPYTTGATSLTAFSFIITTIYYLPYFL | failed |
| MKILVTSGGTSEAIDSVRSITNHSTGHLGKIITETLLSAGYEVCLITTKRALKPEPHPNLSIREITNTKDLLIEMQERVQDYQVLIHSMAVSDYTPVYMTGLEEVQASSNLKEFLSKQNHQAKISSTDEVQVLFLKKTPKIISLVKEWNPTIHLIGFKLLVDVTEDHLVDIARKSLIKNQADLIIANDLTQISADQHRAIFVEKNQLQTVQTKEEIAELLLEKIQAYHS | not failed |
| MKIMIFICGEGLGHTSRCLALGKELLNAGHEIKFGAYGYSKELVEKTGYTAQEIPSEIKLVGKAGSLDLTGSIEATLKSAQLLGGPKLLKLLREFKPDVVVSDSYYLGTLAAMVLKLPVYLIINQSNMEEFFKNRGLEHHHHHH | not failed |
| MKINKELYSIALVLTVLFFVFSILISSVASAAQVTRIGSGSDPAIYGNKIVWTSGGVIHLYDLTSKTGTTVSSSAASHPAIYGNKLVWHDKSSGVPRLTVYDIPSGARSYITQDVGNYSFPAIYGNRIVWSANYNRSSYSYNVYMRDISTSTQVWIAQGENPEIYETKITYGYDDDDGRNIAVYDVNTKETINVHHSSQVFNPHMYGNKVIWSNFYTRSGFIQMYDLVAKKAIDVTSDNTGNTLYGSDTIDAGDDTGTHIDISGDEIVYSKSGDDQFGYAGVYVYDIPSAKSTPVYIYPRGTHTTPDIYNDTIVWGIDSSYGGVNDTGIYICDLSVTNTLPPVAEFTANTTYGAAPLVVLFTDASTGGVPTSWIWDFGHGIDSKHVMNATHTFTKPGNYTISLTAGNDAGNNKVMKPNYIVVTNPFPVANFSSNVTHGYPPLSIQFTDLSQNATGWNWDFGDGSNSTQRSPVHEYADSGIYSVNLTAINENGTDSKLTTITVMQLVGVGPYAYITNSGDNNVSVIDTTTNKVTAMIPVGNYPMGVAVTLDGKKVYVTNFFGRTISVIDATKNKVTATIPLGNSPRGVAVSPDGKRVYVPHHEVGNPSNNTTLIIDTDTNEVEATVLVGEVPFGVAVTLDGKKVYVTNLRDKTVSVIDTATNTVIATIPVGDDPCGVAISPDGKKVYVGNRGDSTVSIIDTATNTVTATVDLENSPYGIVVNPTGTKVYVAGTKKAYAAGTVDGFVSVIDTATNKVTATIPVGNSPFGVAVTPDGSKVYVANQLRDTVSVIDTSTNKVTATMNVGRNPNSFGQFIGSLQAQPIFPVANFSSNVTEGYAPLTVKFNDMSQKATSRIWDFNGDGQLDSSNINPVYIYANPGTYTVNLTVSNKNGTDSKTAAINVLTPSSSSGVSSHSSSSGG | failed |
| MKINLLQYIAGFLGFIALFYGIFSLIREYHFLEIKSLEVFVLIFFGFFAITYAFTDRIMIEKPFALTFAVILFYLSLITPLPLTNKILLITGGIIETQLASRKGVKGTVYIILGILTLIYFVYAHFINLSSILSLIGIGLSSLIIVLGNRDRKVKGISYLTYPVGIPLVVYGINGFFPLSINPIFIIVGLAIVLLNLLPSKGIPSSDYDLKLDQKLCNDIQRSECKDVIQIYKKYMVYIPQHCLDKVVLCTINQNDMQNFNLVINNSLARSVAERYVDKMSPEMLYSLALLSSRKKELLELACKKGYKKACEQTKPILDMKNWDPKVWVGKEIYNYNIVDIIGVGGTSYILKGEKDGNFYALKIPLINYLNNVMDLVGESSKLIELSNKSPYIVRLYAIYADQLDVKEILGGNPEIYYNKPPMLVIELMKGGSINDVINVKELVKSEYWKKIVFITTARIAEALETIHSEGYVHCDVKPQNVLFNEKLPPNARLAYDNLKNGKIIVKLADLGSAVKAGEKPFSYTPAYVSFDLVKSTAFGGVSPMADIYALGATVYKLLTGVTLNTNVMIEAMDKFEANKDIRYLDNSLYSTRNLDLLRKYVDKNTYLFISKMVDPDPNKRPTSKEIKEFFYFRV | failed |
| MKINWAENLRQNVHQLAESLGNLFVESFHYLALFAIGAVTAWAAVMEFLQMIEVGHIKIDDILLLFIYLELGAMVGIYFKTNHMPVRFLIYVAITALTRLLISNVSHHNPPDLGIIYLCGGILLLAFAILVVRYASSQFPSVKIEHPQRKIGAGSGEHPEVEKGEL | failed |
| MKIPSVFMLEQQKASLQLHVKQLANEAIQKSAPSAWFEVLYAEAQGDTTQIPWAKLTPHPYLQEWLTNHQPFPSGQKALVIGCGLGDDAEALAKLGFAVTAFDISPTAIAWCGQRFPNSNVNYIVADLLAIPPQWHLAFDFVFECRNIQALPLNIRAEVITSIASVVAPDGTLLLINRVRLEHHHHHH | failed |
